Patent US20140271478A1 (University of California, published 2014)

T1: human integrin β8 swap construct RKMALY (SEQ ID NO:129) (human, UniProt P26012 43-769)
T1 sequence: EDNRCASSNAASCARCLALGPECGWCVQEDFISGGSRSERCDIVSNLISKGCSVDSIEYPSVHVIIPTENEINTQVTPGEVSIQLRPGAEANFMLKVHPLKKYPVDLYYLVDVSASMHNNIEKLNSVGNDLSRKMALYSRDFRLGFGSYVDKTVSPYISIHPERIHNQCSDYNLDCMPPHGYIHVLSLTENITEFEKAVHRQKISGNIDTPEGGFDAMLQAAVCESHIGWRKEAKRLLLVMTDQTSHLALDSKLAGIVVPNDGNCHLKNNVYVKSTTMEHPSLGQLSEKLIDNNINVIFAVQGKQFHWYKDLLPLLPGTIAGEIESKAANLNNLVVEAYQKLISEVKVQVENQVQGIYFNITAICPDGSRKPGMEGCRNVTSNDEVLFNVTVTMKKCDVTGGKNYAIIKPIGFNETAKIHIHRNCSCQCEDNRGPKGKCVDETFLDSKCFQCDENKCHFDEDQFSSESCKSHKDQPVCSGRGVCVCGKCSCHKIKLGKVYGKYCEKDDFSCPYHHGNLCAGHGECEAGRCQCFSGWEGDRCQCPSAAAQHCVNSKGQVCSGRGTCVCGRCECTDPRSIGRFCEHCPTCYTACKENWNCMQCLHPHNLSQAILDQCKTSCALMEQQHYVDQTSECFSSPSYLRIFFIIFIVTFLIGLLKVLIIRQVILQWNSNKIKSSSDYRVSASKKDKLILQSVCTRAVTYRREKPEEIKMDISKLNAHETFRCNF

T2: human integrin β8 swap construct RKMAFY (SEQ ID NO:130) (human, UniProt P26012 43-769)
T2 sequence: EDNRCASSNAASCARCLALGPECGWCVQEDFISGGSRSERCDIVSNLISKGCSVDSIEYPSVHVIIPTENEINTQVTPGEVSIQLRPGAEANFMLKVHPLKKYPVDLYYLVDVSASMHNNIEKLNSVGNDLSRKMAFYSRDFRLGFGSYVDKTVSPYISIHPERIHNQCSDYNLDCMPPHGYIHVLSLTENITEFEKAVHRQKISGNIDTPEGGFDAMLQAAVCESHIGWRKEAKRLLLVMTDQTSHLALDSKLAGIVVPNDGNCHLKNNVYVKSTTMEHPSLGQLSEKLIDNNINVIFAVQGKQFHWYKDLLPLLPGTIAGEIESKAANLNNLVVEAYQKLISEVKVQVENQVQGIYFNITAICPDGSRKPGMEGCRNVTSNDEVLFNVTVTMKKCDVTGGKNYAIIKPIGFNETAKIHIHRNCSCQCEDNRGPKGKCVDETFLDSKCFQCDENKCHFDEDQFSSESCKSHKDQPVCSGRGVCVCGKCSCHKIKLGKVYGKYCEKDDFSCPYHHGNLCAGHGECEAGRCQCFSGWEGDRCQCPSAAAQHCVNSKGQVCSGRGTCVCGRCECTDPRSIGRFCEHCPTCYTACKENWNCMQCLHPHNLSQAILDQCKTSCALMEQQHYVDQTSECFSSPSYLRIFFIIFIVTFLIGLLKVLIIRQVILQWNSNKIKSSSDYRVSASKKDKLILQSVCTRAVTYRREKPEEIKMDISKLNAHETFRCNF

T3: human integrin β8 swap construct KKMAFY (SEQ ID NO:131) (human, UniProt P26012 43-769)
T3 sequence: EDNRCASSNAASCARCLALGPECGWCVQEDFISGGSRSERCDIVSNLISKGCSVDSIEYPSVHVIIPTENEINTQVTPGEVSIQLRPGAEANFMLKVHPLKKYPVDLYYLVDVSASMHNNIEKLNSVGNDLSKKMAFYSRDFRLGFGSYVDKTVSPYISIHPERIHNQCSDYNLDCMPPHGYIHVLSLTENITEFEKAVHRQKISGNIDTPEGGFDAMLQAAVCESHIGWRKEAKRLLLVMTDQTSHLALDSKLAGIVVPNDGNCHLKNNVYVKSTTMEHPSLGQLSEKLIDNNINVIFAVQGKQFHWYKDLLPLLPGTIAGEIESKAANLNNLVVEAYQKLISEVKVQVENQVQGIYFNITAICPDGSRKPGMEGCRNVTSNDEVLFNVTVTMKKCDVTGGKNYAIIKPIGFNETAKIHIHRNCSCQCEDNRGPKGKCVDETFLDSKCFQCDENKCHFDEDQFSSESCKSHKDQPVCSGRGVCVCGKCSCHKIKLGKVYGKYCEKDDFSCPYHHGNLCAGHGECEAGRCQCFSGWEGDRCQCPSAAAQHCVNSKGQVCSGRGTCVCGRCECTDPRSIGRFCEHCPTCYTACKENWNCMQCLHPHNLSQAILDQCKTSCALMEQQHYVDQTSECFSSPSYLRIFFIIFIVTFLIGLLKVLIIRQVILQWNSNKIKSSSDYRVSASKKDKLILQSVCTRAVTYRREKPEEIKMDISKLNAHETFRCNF

T4: human integrin β8 swap construct RKMALF (SEQ ID NO:134) (human, UniProt P26012 43-769)
T4 sequence: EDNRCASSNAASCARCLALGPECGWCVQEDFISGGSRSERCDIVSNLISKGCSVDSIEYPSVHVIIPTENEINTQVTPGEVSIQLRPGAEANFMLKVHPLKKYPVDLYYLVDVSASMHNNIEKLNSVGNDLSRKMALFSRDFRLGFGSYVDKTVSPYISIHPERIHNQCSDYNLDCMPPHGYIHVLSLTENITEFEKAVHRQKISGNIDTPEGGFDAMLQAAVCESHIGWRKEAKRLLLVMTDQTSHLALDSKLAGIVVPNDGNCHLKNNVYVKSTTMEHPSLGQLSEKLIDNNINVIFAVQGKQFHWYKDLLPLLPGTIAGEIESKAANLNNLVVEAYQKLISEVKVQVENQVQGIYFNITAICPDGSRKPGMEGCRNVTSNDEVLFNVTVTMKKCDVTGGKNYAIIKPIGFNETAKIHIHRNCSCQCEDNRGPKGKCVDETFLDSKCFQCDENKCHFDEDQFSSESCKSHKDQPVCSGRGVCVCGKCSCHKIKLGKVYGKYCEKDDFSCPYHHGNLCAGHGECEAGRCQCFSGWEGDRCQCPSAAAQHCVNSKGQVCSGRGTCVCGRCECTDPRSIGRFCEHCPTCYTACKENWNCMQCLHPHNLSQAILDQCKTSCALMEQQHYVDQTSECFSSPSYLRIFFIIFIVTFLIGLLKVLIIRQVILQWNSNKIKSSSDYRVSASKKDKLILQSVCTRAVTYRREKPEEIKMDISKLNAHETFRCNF


How the values were obtained:
Assay in all cases: cell staining of β8 amino acid swap constructs (175-180)
[1] = molecular target: T1, human integrin β8 swap construct RKMALY …
[2] = molecular target: T2, human integrin β8 swap construct RKMAFY …
[3] = molecular target: T3, human integrin β8 swap construct KKMAFY …
[4] = molecular target: T4, human integrin β8 swap construct RKMALF …

| Binder | % positive [1] [%] | % positive [2] [%] | % positive [3] [%] | % positive [4] [%] |
| --- | --- | --- | --- | --- |
| 14E5 antibody (antibody, V domains shown, Mouse hybridoma antibody; also called hybridoma clone 14E5) VH: EVQLQQSGAELMKPGASVKISCKATGYTFSTYWIEWIKQRPGHGLEWIGHILPGSVITNYNEKFKGKAAITADTSSNTSYMQLSSLTSEDSAVYYCARWGWDSYWGQGTLVTVSS VL: DIEMTQSPSSLSASLGDRVTISCSTSQDISSSLNWYQQKPDGTVTLLIYYTSNLHSGVPSRFSGSGSGTDYSLTISNLEPEDIATYYCQQYSKLPYTFGGGTKLEIKR | 1 | 6 | 6 | 150 |
| 11E8 antibody (antibody, V domains shown, Mouse hybridoma antibody) VH: EVQLQQSGPELMKTGASVKISCKATGYTFSSYWIEWVKQRPGHGLEWIGDILPGSGTTNYNEKFKGRATVTADRSSNTAYMQLSSLTYGDSAVYYCATWGWDTYWDQGTSVTVSS VL: DIVMTQSPSSLSASLGDRVTISCSASQGISNYLNWYQQKPDGTVKLLIYYTSSLHSGVPSRFSGSGSGTDYSLTISNLEPEDIATYYCQQYSNLPYTFGGGTKLEIKR | 4 | 108 | 31 | 125 |
| 37E1B5 antibody (antibody, V domains shown) VH: EVQLVESGGGLVQPGGSLNLSCAVSGFVFSRYWMSWVRQAPGKGLEWIGEINPDSSTINYTSSLKDKFIISRDNAKNTLYLQMNKVRSEDTALYYCACLITTEDYWGQGTSVTVSS VL: QIVLTQSPSSMYASLGERVTIPCKASQDINSYLSWFQQKPGKSPKTLIYYANRLVDGVPSRFSGSGSGQDYSLTISSLEYEDMGIYYCLQYDEFPYTFGGGTKLEIK | 14 | 89 | 3 | 131 |
